Laboratory results as given in patent publication US10471162B2, “Collagen targeted imaging probes” (priority 2014, dated 2019).

Experiments:
[1] = test system: pulmonary fibrosis, C57/BL6 mice (bleomycin or sham); assay: in vivo; type: in vivo, mouse; settings: male, C57/BL6, mouse, in vivo, iv, 2.5 h
Experimental: (§1) Pulmonary fibrosis was induced in 7-8-week-old male C57/BL6 mice by transtracheal administration of bleomycin (BM; 2.5 U/kg) in 50 μL of PBS under direct vision using a small cervical incision. Sham animals received only PBS. Animals were placed in a small-animal PET/SPECT/CT scanner (Triumph; TriFoil Imaging), equipped with inhalation anesthesia and heating pad. Each animal was anesthetized with isoflurane (4% for induction, 2-2.5% for maintenance in medical air) and body temperature was kept at 37-38° C. using a heating pad. The femoral vein was cannulated for intravenous delivery of the PET agent. Each mouse was injected with approximately 0.1 mL and 20-50 μCi of ^64Cu-CBP(n), 0.1 mL and 20-50 μCi of ^68Ga-CBP(n) and 0.1 mL and 10-20 μCi of Al^18F-CBP(n) in a 18 mM solution of sucrose in water, followed by saline flush. […] The lungs, blood, urine, heart, liver, left rectus femoris muscle, spleen, small intestine, kidneys, left femur bone were collected from all animals. The tissues were weighed, and radioactivity in each tissue was measured on a gamma counter (CobraII Auto gamma; Packard). The radioactivity in the lung was reported as percent injected dose per gram corrected with the average sham weight, which was calculated by dividing the counts of ^64Cu per average sham tissue weight in gram by the total of counts of the injected dose. The radioactivity in every other tissue was reported as percent injected dose per gram (% ID/g), which was calculated by dividing the counts of ^64Cu per gram of tissue by the total of counts of the injected dose. A p-value of less than 0.05 was considered significant. Uncertainties are expressed as the standard error of the mean.

in vivo = type: in vivo, mouse; settings: male, C57/BL6, mouse, in vivo, iv, total radioactivity, Biodistribution % ID/g
Experimental: as §1

SMILES: CC(C)C[C@H](NC(=O)[C@@H]1CSSC[C@H](NC(=O)[C@H](Cc2c[nH]cn2)NC(=O)[C@H](Cc2c[nH]c3ccccc23)NC(=O)[C@H](CCCCNC(=O)CNC(=O)CCC(C(=O)O)N2CCN(CC(=O)O)CCN(CC(=O)O)CC2)NC(=O)CNC(=O)CCC(C(=O)O)N2CCN(CC(=O)O)CCN(CC(=O)O)CC2)C(=O)N[C@@H]([C@@H](C)O)C(=O)N[C@@H]([C@@H](C)O)C(=O)N[C@@H](CCCCNC(=O)CCC(C(=O)O)N2CCN(CC(=O)O)CCN(CC(=O)O)CC2)C(=O)N[C@@H](Cc2ccccc2)C(=O)N2CCC[C@H]2C(=O)N[C@@H](Cc2c[nH]cn2)C(=O)N[C@@H](Cc2c[nH]cn2)C(=O)N[C@@H](Cc2ccc(O)cc2)C(=O)N1)C(=O)N[C@@H](Cc1ccc(O)cc1)C(=O)N[C@@H](Cc1ccc(-c2ccccc2)cc1)C(N)=O (single isomer, unassigned) [CBP8]
- Biodistribution % ID/g, blood [1]: 0.569 ± 0.102 % ID/g
- Biodistribution % ID/g, bone [1]: 1.117 ± 0.347 % ID/g
- Biodistribution % ID/g, heart [1]: 0.340 ± 0.032 % ID/g
- Biodistribution % ID/g, kidney [1]: 41.063 ± 5.830 % ID/g
- Biodistribution % ID/g, liver [1]: 1.189 ± 0.113 % ID/g
- Biodistribution % ID/g, muscle [1]: 0.927 ± 0.422 % ID/g
- Biodistribution % ID/g, sm. intestine [1]: 0.830 ± 0.197 % ID/g
- Biodistribution % ID/g, spleen [1]: 0.659 ± 0.141 % ID/g
- tissue uptake at 2.5 h (in vivo; blood): 0.512 ± 0.181 %ID/g
- tissue uptake at 2.5 h (in vivo; bone): 1.11 ± 0.594 %ID/g
- tissue uptake at 2.5 h (in vivo; heart): 0.242 ± 0.059 %ID/g
- tissue uptake at 2.5 h (in vivo; kidney): 30 ± 4.59 %ID/g
- tissue uptake at 2.5 h (in vivo; liver): 0.95 ± 0.127 %ID/g
- tissue uptake at 2.5 h (in vivo; muscle): 0.567 ± 0.247 %ID/g
- tissue uptake at 2.5 h (in vivo; sm. intestine): 0.42 ± 0.086 %ID/g
- tissue uptake at 2.5 h (in vivo; spleen): 0.462 ± 0.047 %ID/g
